The target of this test is A1-tagged Gal-1 (galectin-1) (UniProt P09382). The test is described as follows: FRET or BRET; in vitro sensitized acceptor emission FRET titration; 100 nM ATTO-488-labelled Gal-1 titrated with 100 nM to 1000 nM DY-547-labelled C-Raf-RBD; 25 mM HEPES, 100 mM NaCl, 3 mM MgCl2, 3 mM DTT, pH 7.2.

In the case of “A1-tagged C-Raf-RBD (from UniProt P04049 56-131) (domain or fragment)”, the Kd was 0.106 µM.

The record behind these values is publication PMC4834570.
